# B1: Neuronal cell adhesion molecule (Mus musculus), Q810U4 (parent)
# chain: MQLKIMPKKKHLSAGGVPLILFLCQMISALDVPLDLVQPPTITQQSPKDYIIDPRENIVIQCEAKGKPPPSFSWTRNGTHFDIDKDPLVTMKPGSGTLVINIMSEGKAETYEGVYQCTARNERGAAVSNNIVVRPSRSPLWTKERLEPIVLQNGQSLVLPCRPPIGLPPAIIFWMDNSFQRLPQSERVSQGLNGDLYFSNVLPEDTREDYICYARFNHTQTIQQKQPISLKVISVDELNDTIAANLSDTEFYGAKSSKERPPTFLTPEGNESHKEELRGNVLSLECIAEGLPTPIIYWIKEDGMLPANRTFYRNFKKTLQITHVSEADSGNYQCIAKNALGAVHHTISVTVKAAPYWIVAPQNLVLSPGENGTLICRANGNPKPRISWLTNGVPIEIALDDPSRKIDGDTIIFSNVQESSSAVYQCNASNKYGYLLANAFVNVLAEPPRILTSANTLYQVIANRPALLDCAFFGSPMPTIEWFKGTKGSALHEDIYVLHDNGTLEIPVAQKDSTGTYTCVARNKLGMAKNEVHLEIKDPTRIIKQPEYAVVQRGSKVSFECRVKHDHTLIPTIMWLKDNGELPNDERFSTDKDHLVVSDVKDDDGGTYTCTANTTLDSASASAVLRVVAPTPTPAPIYDVPNPPFDLELTNQLDKSVQLTWTPGDDNNSPITKFIIEYEDAMHDAGLWRHQAEVSGTQTTAQLKLSPYVNYSFRVMAENSIGRSMPSEASEQYLTKAAEPDQNPMAVEGLGTEPDNLVITWKPLNGFQSNGPGLQYKVSWRQKDGDDEWTSVVVANVSKYIVSGTPTFVPYLIKVQALNDVGFAPEPAAVMGHSGEDLPMVAPGNVRVSVVNSTLAEVHWDPVPPKSVRGHLQGYRIYYWKTQSSSKRNRRHIEKKILTFQGTKTHGMLPGLQPYSHYALNVRVVNGKGEGPASTDRGFHTPEGVPSAPSSLKIVNPTLDSLTLEWDPPSHPNGILTEYILQYQPINSTHELGPLVDLKIPANKTRWTLKNLNFSTRYKFYFYAQTSVGPGSQITEEAITTVDEAGIPPPDVGAGKGKEEWRKEIVNGSRSFFGLKGLMPGTAYKVRVGAEGDSGFVSSEDVFETGPAMASRQVDIATQGWFIGLMCAVALLILILLIVCFIRRNKGGKYPVKEKEDAHADPEIQPMKEDDGTFGEYSDAEDHKPLKKGSRTPSDRTVKKEDSDDSLVDYGEGVNGQFNEDGSFIGQYSGKKEKEPAEGNESSEAPSPVNAMNSFV
# Variants of: B1
# Details: with dlg1_mouse Dlg1, Q811D0
# Sequence of dlg1_mouse Dlg1, Q811D0 (Q811D0 whole entry): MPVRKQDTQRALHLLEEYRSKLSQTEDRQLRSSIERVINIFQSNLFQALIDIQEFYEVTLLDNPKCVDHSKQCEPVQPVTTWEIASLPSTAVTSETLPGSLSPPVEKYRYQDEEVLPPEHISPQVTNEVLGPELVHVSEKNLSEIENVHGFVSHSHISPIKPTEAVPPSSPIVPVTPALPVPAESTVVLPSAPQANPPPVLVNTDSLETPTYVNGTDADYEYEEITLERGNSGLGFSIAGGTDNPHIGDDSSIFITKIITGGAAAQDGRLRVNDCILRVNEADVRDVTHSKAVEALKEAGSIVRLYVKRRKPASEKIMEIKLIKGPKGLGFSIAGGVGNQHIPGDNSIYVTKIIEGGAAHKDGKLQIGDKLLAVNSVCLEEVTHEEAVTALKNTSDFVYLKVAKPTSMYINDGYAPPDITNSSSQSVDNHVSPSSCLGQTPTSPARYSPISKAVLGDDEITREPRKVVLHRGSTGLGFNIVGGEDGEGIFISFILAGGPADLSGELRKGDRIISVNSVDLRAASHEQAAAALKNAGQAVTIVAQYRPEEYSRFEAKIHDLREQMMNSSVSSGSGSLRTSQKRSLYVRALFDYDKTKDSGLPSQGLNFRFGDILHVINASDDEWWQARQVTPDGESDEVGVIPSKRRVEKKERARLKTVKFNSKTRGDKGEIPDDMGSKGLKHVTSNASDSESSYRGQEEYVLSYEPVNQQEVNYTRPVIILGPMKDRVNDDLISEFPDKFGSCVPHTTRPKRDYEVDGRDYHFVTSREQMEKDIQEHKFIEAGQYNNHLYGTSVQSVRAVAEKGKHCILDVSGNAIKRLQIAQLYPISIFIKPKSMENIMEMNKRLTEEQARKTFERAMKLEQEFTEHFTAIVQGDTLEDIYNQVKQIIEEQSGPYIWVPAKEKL
row,effect of a mutation on the interaction,Variant
1,disrupting interaction,V1256A
